Assay results: the supplement of paper PMC9732359
± gives the uncertainty stated by the source.

Assay: protein stability index of a GFP-peptide fusion (yeast GPS) (PSI 1-4); higher = more stable; sorted into four equal gates, so the index is relative within each strain
Outline: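 The protein stability index of a peptide was calculated by multiplying its read frequency in each gate by that gate's number and adding the products. The peptides were tiled 17-residue stretches of yeast proteins, fused downstream of GFP on a Cherry-expressing plasmid and carried in yeast as a pooled library. Mid-log cultures in leucine-free medium were sorted into four equal gates by GFP/Cherry ratio, and each gate's plasmids were PCR-amplified and Illumina-sequenced.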

| Sequence | protein stability index (doa10∆) | protein stability index (pdr5∆) | protein stability index (san1∆) | protein stability index (ubr1∆) |
| --- | --- | --- | --- | --- |
| LKAVTVEAGMIALRNGQ [RPT5] | 3.1 ± 0.23 | 2.9 ± 0.16 | 2.51 ± 0.17 |  |
| TFANPNRTFTDPPFRIE [TAF14] | 2.35 ± 0.078 | 2.76 ± 0.075 | 2.7 ± 0.094 | 2.27 ± 0.039 |
| RAIILERNAAYQKEYET [RPL7A] | 2.59 ± 0.067 | 2.81 ± 0.05 | 2.62 ± 0.05 | 2.89 ± 0.079 |
| GLVKQHLDSFNYFVDTD [RET1] | 3.46 ± 0.17 | 3.05 ± 0.097 | 2.97 ± 0.11 | 3.36 ± 0.075 |
| SAKEIAKASGCDDESGD [MCD1] | 2.19 ± 0.094 | 1.8 ± 0.15 | 2.62 ± 0.12 | 2.86 ± 0.14 |
| EQNSSSAKPSQIPTVSS [SIR4] | 2.99 ± 0.062 | 2.97 ± 0.051 | 2.97 ± 0.048 | 3.04 ± 0.05 |
| RYFFYLSKINAIQLDYS [RPN3] | 1.31 ± 0.057 | 1.23 ± 0.058 | 1.34 ± 0.15 | 1.33 ± 0.044 |
| DFDGDEMNLHVPQSEET [RPO21] | 3.04 ± 0.083 | 3.12 ± 0.063 | 2.98 ± 0.045 | 3.23 ± 0.074 |
| DTIDNVKSKIQDKEGIP [RPS31] | 3.22 ± 0.098 | 3.46 ± 0.089 | 3.38 ± 0.05 | 3.57 ± 0.075 |
| ETATSERNASEVRDATL [GRR1] | 3.53 ± 0.19 | 3.45 ± 0.19 |  | 3.52 ± 0.19 |
| NNNNAPIIIYGTENTER [YOR098C/NUP1] | 2.62 ± 0.054 | 2.69 ± 0.06 | 2.83 ± 0.045 | 2.74 ± 0.039 |
| FLVRYACEPTAEKFVPI [SIR3] | 2.55 ± 0.23 | 2.9 ± 0.097 | 2.75 ± 0.11 | 2.91 ± 0.1 |
| YLNGTLIGSIRFPTKFV [RET1] | 2.04 ± 0.075 | 1.6 ± 0.053 | 1.64 ± 0.088 | 1.56 ± 0.044 |
| DKFSPEDGLGPLMAKSV [ARP7] | 3.02 ± 0.11 | 3.06 ± 0.11 | 2.66 ± 0.13 | 3.39 ± 0.097 |
| ILVKRYSIEMKPYSGKL [ECM29] | 1.58 ± 0.048 | 1.76 ± 0.049 | 1.79 ± 0.073 | 2.43 ± 0.044 |
| ITDKTIKAFMDSTIGNS [IRR1] | 2.54 ± 0.15 | 2.62 ± 0.14 | 3.4 ± 0.15 | 2.41 ± 0.14 |
| ELTDEYLAENPDPNFEN [PRP8] | 3.45 ± 0.077 | 3.16 ± 0.076 | 3.36 ± 0.077 | 3.32 ± 0.053 |
| ALRDVKNNNNANNNGSN [GAL11] | 3.33 ± 0.095 | 2.95 ± 0.14 | 3.13 ± 0.12 | 3.41 ± 0.11 |
| KFNAAPEENATEGPSDK [SNF12] | 3.1 ± 0.16 | 3.58 ± 0.14 | 3.26 ± 0.081 | 3.26 ± 0.098 |
| GGIETILEHTLFKGTGF [PRP8] | 3.3 ± 0.22 | 3.28 ± 0.21 | 3.21 ± 0.14 | 3.47 ± 0.13 |
| DFISPELIIDKVTCSSN [MED1] | 1.69 ± 0.1 | 1.75 ± 0.099 | 1.82 ± 0.22 | 1.37 ± 0.09 |
| IDQVMMSVSDNDQALIK [RET1] | 2.9 ± 0.054 | 3.06 ± 0.066 | 3.13 ± 0.048 | 3.01 ± 0.051 |
| DLNKENKLLRRKLMEME [YIL149C/MLP2] | 3.41 ± 0.2 | 2.95 ± 0.21 | 3.33 ± 0.11 |  |
| GCYFEEKRYDDKLLDFI [CSN12] | 3.34 ± 0.06 | 2.92 ± 0.098 | 3.04 ± 0.066 | 3.04 ± 0.077 |
| KVLTALSRLQKSGRING [SMC4] |  | 3.43 ± 0.2 | 3.29 ± 0.083 | 3.43 ± 0.19 |
| TLKKNNVAVDIINFGEI [RPN10] | 2.97 ± 0.081 | 3.01 ± 0.092 | 3.02 ± 0.1 | 2.74 ± 0.063 |

| Sequence | protein stability index (doa10∆) | protein stability index (pdr5∆) | protein stability index (san1∆) | protein stability index (ubr1∆) |
| --- | --- | --- | --- | --- |
| LRKSELEYYAMLSKTKV [RPL30] | 2.62 ± 0.075 | 3.01 ± 0.078 | 2.17 ± 0.07 | 2.82 ± 0.068 |
| NEQEEKSEEVKAEDDTG [RPC37] | 3.2 ± 0.17 |  | 2.94 ± 0.2 | 2.85 ± 0.17 |
| EQSLEVFIFPTSNWEIY [SRB8] | 2.47 ± 0.067 | 2.2 ± 0.048 | 2.57 ± 0.044 | 2.52 ± 0.033 |
| KTASLGNSKDDLLDMIQ [ISW2] | 1.62 ± 0.066 | 2.22 ± 0.13 | 3.36 ± 0.059 | 1.94 ± 0.059 |
| GLRNQNMVRNNNNNTID [GRR1] | 2.75 ± 0.063 | 2.86 ± 0.071 | 2.83 ± 0.057 | 2.96 ± 0.038 |
| SEPLTLKVLSEHLDCMN [PCI8] | 1.91 ± 0.064 | 2.29 ± 0.065 | 2.73 ± 0.055 | 1.93 ± 0.058 |
| KQNPGLMQNMMNMFGGG [SRP54] | 2.05 ± 0.086 | 2.36 ± 0.049 | 2.37 ± 0.088 | 1.8 ± 0.042 |
| WKLLNQLVLRGLLSQAI [YJR042W/NUP85] | 2.01 ± 0.18 | 1.3 ± 0.076 | 1.28 ± 0.11 | 1.17 ± 0.1 |
| EDFEHNNLSSMNLDFDI [MCD1] | 2.76 ± 0.053 | 3.24 ± 0.061 | 3.24 ± 0.04 | 3.24 ± 0.033 |
| PQKNVKIQVVDRHIGCV [PRE10] |  | 2.72 ± 0.27 |  |  |
| KLEAEEIPSEDQNEFLL [FAS2] | 2.62 ± 0.13 | 1.75 ± 0.092 | 2.25 ± 0.11 | 3.51 ± 0.16 |
| SPMLKRIKITANNNMND [GRR1] | 2.36 ± 0.055 | 2.4 ± 0.078 | 1.77 ± 0.079 | 2.71 ± 0.048 |
| QMMARMAQTATQQQPGA [SRP54] | 2.34 ± 0.059 | 2.36 ± 0.067 | 2.35 ± 0.067 | 2.27 ± 0.044 |
| HKKIKVAQPDSLRETNT [SIR2] | 3.33 ± 0.13 | 3.25 ± 0.11 | 2.6 ± 0.092 | 3.2 ± 0.053 |
| VAIACDLRLGSQSLGVS [PUP3] |  | 2.75 ± 0.26 | 2.85 ± 0.17 |  |
| MSAPTMRSTSILTEHLG [MTW1] |  |  | 2.87 ± 0.24 |  |
| TTARAKARAKKTKKEKG [RPN2] | 3.31 ± 0.15 | 3.63 ± 0.2 | 3.16 ± 0.079 | 3.21 ± 0.089 |
| KTVCAIALILAIQMVDP [SMC3] | 1.11 ± 0.092 | 1.1 ± 0.072 | 2.08 ± 0.23 | 1.87 ± 0.081 |
| TDGVIGSRTTTNHVLEV [RPO31] | 3.17 ± 0.094 | 3.62 ± 0.094 | 3.19 ± 0.13 | 3.54 ± 0.088 |
| GAIIGWTRGTGLMSANN [FAS2] | 2.89 ± 0.087 | 2.83 ± 0.083 | 3.08 ± 0.091 | 2.78 ± 0.29 |
| VLAKRMANLSQIYTQRA [SCL1] | 2.52 ± 0.12 | 3 ± 0.27 | 2.34 ± 0.12 | 2.69 ± 0.091 |
| DPLNSNIFSEAVKNKYN [PRP28] | 1.81 ± 0.17 | 2.74 ± 0.11 | 3.02 ± 0.09 | 2.92 ± 0.096 |
| TNSNNTPLQSQLNLNNL [PGD1] | 3.01 ± 0.071 | 3.01 ± 0.059 | 3 ± 0.043 | 3.05 ± 0.042 |
| SRRWRQRKNIQSLELMI [BRR2] | 1.39 ± 0.096 | 1.88 ± 0.073 | 2.15 ± 0.15 | 1.29 ± 0.057 |
| MSNVVQARDNSQVFGVA [RPS14A] | 1.89 ± 0.06 | 2.11 ± 0.056 | 1.94 ± 0.083 | 2.05 ± 0.041 |
